Assay results published in PMC3216068.

Molecular target: SUMO1 (human) (UniProt P63165)
Experiment: SPR; preliminary BiaCore analyses, done by Affina Biotechnologies as a paid service

UniProt P63165, sequence (P63165 1-97): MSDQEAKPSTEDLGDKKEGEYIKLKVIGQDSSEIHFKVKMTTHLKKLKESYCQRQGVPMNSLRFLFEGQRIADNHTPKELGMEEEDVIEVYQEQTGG

Substance: Ulp1(3)^(C580S) as used in the BiaCore analyses (from UniProt Q02724 341-621) (domain or fragment)
- Kd: 12.8 nM
